The data set in a line: yeast display, Sf9 membrane polyspecificity reagent, FACS + sequencing; frameworks hold sequencing errors. Summed up:
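Sorting gates, low and high (top ~1%), were placed on anti-HA fluorescence to track expression and on streptavidin fluorescence to track reagent binding. A clone's polyreactivity label is taken from the gate it came out of. The reagent was 10% biotinylated, detergent-solubilized Sf9 membrane, applied for 1 hour at 4 °C to galactose-induced yeast display cells.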
As to “QVQLVESGGGLVQAGGSHRLSCAASGIIIRYYAMGWYRQAPGKERDLVAAISGGGSTYYADSVKGRFTISRDNAKNTVYLQMNRLKPEDTAVYYCAAAGRWYYHGYNYWGQGTQVTVSS”, the “polyreactivity (PSR sort gate)” value is given as “high polyreactivity”.

Take “QVQLVESGGGLVQAGGSLRLSCAASGLIFWYYAMGWYRQAPGKERELVAAINKIGGSTYYADSVKGRFTISRDNAKNTVYLQMNSLKPEDTAVYYCAADAPYYPVRRYYYWGQGTQVTVSS”: the “polyreactivity (PSR sort gate)” value is on record as “low polyreactivity”.

As for “QVQLVESGGGLVQAGGSLRLSCAASGFIFIEYTMGWYRQAPGKERQLVAAISSGGNTYYADSVKGRFTISRDNAKNTVYLQMNSLKPEDTAVYYCNADNYAFYTQRPLDGSATYDYWGQGTQVTVSS”, the “polyreactivity (PSR sort gate)” value is given as “low polyreactivity”. Under “QVQLVESGGGLVQAGGSLRLSCAASGSTFLVNAMGLYRQAPGKEREFVAAITGNAGSTYYADSVKGRFTISRDNAKITVYLQMNSLIPEDTAVYYCARTRRTPRGYLDFSLREYDYWGQGTQVTVSS” stands “low polyreactivity”. For the sequence “QVQLVESGGGLVQAGGSLRLSCAASGRIFNYYAMGWYRQAPGKERELVAAINSGGSTYADSVKGRFTISRDNAKNTVYLQMNSLKPEDTAVYYCAKDGQLQSVRERPSGYDHWGQGTQVTVSS”, the “polyreactivity (PSR sort gate)” value is recorded as “low polyreactivity”. The entry for “QVQLVESGAGLVQAGGSLRLSCAASGFTFYDYAMGWYRQAPGKERELVAAISRGGGSTYYADSVKGRFTISRDNAKNTVYLQMNSLKPEDTAVYYCNAALTRVSRFWGGDYYYWGQGTQVTVSS” is “high polyreactivity”. The entry for “QVQLVESGGGLVQAGGSLRLSCAASGFTFLKNAMGWYRQAPGKERELVAAITSSGGRTYYADSVKGRFTISRDNAKNTVYLQMNSLKPEDTAVYFCIKGPLPGYDYWGQGTQVTVSS” is “high polyreactivity”. As to “QVQLVESGGGLVQAGGSLRLSCAASGSTFHRNAMGWYRQAPGKERELVAAISWRGGSTYYADSVKGRFTISRDNAKNNVYLLMNSLKPEDTAVYYCNAVERYWDYGYWGQGTQVTVSS”, the “polyreactivity (PSR sort gate)” value was “low polyreactivity”. The entry for “QVQLVESGGGLVQAGGSLRLTCAASRSIFYPNAMGWYRQAPGKETELVAAISSSGGTNYADSVKGRFTISRDNAQNTVYLQMNSLKPEDTAVYYCNARDKVRYRYSLMDYWGQGTQVTVSS” is “low polyreactivity”; for “QVQLVESGGGLVQAGGSLRLSCAASGRTFKANAMGWYRQAPGKERELVAAISYSGGNTYYADSVKGRFTISRDNAKNTVYLQMNSLKPEDTAVYYCAARRGYGRENQFYSWGQGTQVTVSS” it is “high polyreactivity”. “QVQLVESGGGLVQAGGSLRLSCAASGSTFWKYVMGWYRQAPGKVRELVAAITSRGGSTYADSVKGRFTISRDNAKNTVYLQMNSLKPEDTAVYYCAATKFWYYGYDYWGQGTQVTVSS”: the “polyreactivity (PSR sort gate)” value was “low polyreactivity”. Under “QVQLVESGGGLVQAGGSLRLSCAASGRIFYGYAMGWYRQAPGKEWELVAAITDSGGITYYADSVKGRFTISRDNAKKTVYLQLNSLKPEDTAVYYCTALVRDPAWLSRVGYSGDYWGQGTQVTVSS” stands “high polyreactivity”; under “QDQLVESGAGLVQAGGSLRLSCAASGRTFAYNAMGWYRQAPGKERELVASITSGGSTNYADSVKGRFTISRDNAKNTVYLQMNCLKPEDTAVYYCNKDGKYHRVLYDYWGQGTQVTVSS”, “low polyreactivity”.

As to “QDQLVDSGGGLVQAGGSLRLSCAASASTFDPNLMPSYRQAPGKEREVVAAISSRSGSTSYADSVKGRFTISRDNAKNTDYLQMNSLKPEDTAVYYCAARVYGLPLRMYSWGQGTQVTGSS”, the “polyreactivity (PSR sort gate)” value is “high polyreactivity”. In the case of “QVQLVESGGGLVQAGGSLRLSSAASGFTFYWYAMGWYRQAPGKEREFVAAIDQSGGSTYYADSVKGRFTISRDNAKNTVYLQMNSLKPEDTAVYYCAARYILWDGYSWTEFDYWGQGTQVTVSS”, the “polyreactivity (PSR sort gate)” value is on record as “low polyreactivity”. The entry for “QVQLVESGGGLVQAGGSLRLSCAASGSIFHPYAMGWYRQAPGKERELVAAISSSTGRTYYADSVKGRFTISRDNAKNTVYLQMNSLKPEDTAVYYCAARKKYSEFDYWGQGTQVTVSS” is “high polyreactivity”; for “QVQLEESGGGLVQAGGSLRLSCAASGRIFYWYAMGWYRQAPGKERELVATISSAGTTYYADSVKGRFTISRDNAKNTVYLQMNSLKPEDTAVYYCAVPRVGLHGIGSDYWGQGTQVTVSS” it is “high polyreactivity”. Under “QVQLVESGGGLVQAGGSLPLSGAPSGSTFGYNTMGWSRQAPGKESELVAAITSGGRTYYADSVKGRFTISRDNAKNTVYLQRNSLKPEDTAVYYCAAYYWWGYPENDYWVQGTQVTVSS” stands “high polyreactivity”.

With “QVQLVESGGGLVQAGGSLRLSCAASGRIFGLYAMGWYRQAPGKERELVATITRRAGSTYYADSVKGRFTISRDNAKNTVYLQMNSLKPEDTAVYYCAARSWANYDYWGQGTQVTVSS”, the “polyreactivity (PSR sort gate)” value is “high polyreactivity”. “QVQLVETGGGLVQAGGSLRLSCAATGFTFGYYTMGWYRQAPGKEGELVAAITWRGGSTYYADSVKGRFTISRDNAKNTVYLQMNSLKPEDTAVYYCNAVVLGYYPSGVYPDDEEHDYWGQGTQVTVSS”: the “polyreactivity (PSR sort gate)” value is “high polyreactivity”.

With “QVQLVESGGGLVQAGGSLRLSCAASGRIFNRYAMGWYRQAPGKERELVAAISRGGGTNYADSVKGRFTISRDNAKNTVYLQMNSLKPEDTAVYYCAAARGHNVETSTTYDRGDYWGQGTQVTVSS”, the “polyreactivity (PSR sort gate)” value was “low polyreactivity”. Take “QVQLVESGGGLVQAGGRLRLSCAASGRIFPKNTMGWNRPAPGKERELVAAINWNGGRTYYADSVKGRYTISRDNAKTTVYLQMNSLKPEDTAVYYCAKDGYWVFDYWGQGTQVTVSS”: the “polyreactivity (PSR sort gate)” value is listed as “low polyreactivity”. The entry for “QVQLVESGGGLVQAGGSLRLSCAASGRTFYNAMGWYRQAPGKERELVAAITTGGGTKYADSVKGRFTISRDNAKNTVYLQMNSLKPEDTAVYYCNTDEWYHFYHGAHKYDYWGQGTQVTVSS” is “low polyreactivity”.

For the sequence “QVQLVETGGGLVQAGGSIRLTCAASGLTYTGNAIVWSRQAPGKEMECVAAIRWSAGSTYYADSVKGRFTISRDNAKNTVYLQMNSLKPEDTAVYYCNAALNVSGHYPNDYWGQGTQVTVSS”, the “polyreactivity (PSR sort gate)” value is “low polyreactivity”.

Take “QVQLVESGGGLVQEGGSLRLSCAASGITFGTNAMGWYRQAPGKERELVAAIRRDGSTYYADSVKGRFTISRDNAKNTVYLQMNSLKPEDTAVYYCAATYWGRAYQGYRNLLYGYWGQGTQVTVSS”: the “polyreactivity (PSR sort gate)” value is recorded as “high polyreactivity”. Under “QVQLVESGGGLVQAGGSLRLTCAASGLTFLVYALGWYRQEPGKEWEFVATISKSGGRTYYADSVKGRFTISRDNAKNTVYVQMNSLKPEHTAVDYCAAKGYPYGRLWCGYYRYDYWGQGTQVTVSS” stands “high polyreactivity”.

Take “QVQLVESGGGLVQAGGSLGLTCAASGFIFLDYTMVWYRQAPGIERELVATINASDGSTYYADSVKGRFTISRDNAKKTVYLQMNSLKPEDTAVYYCNTKVISRTSERRGNGFTRYDYWGQGTQVTVSS”: the “polyreactivity (PSR sort gate)” value is given as “low polyreactivity”.

As for “QVQLVESGGGLVQAGGSLRLSCAASGSIFSYYTMGWYRQAPGKERELVAAITRGGRTSYADSVKGRFTISRDNAKNTVYLQMNSLKPEDTAVYYCAADYWYFTHQLSTYGDNYWGQGTQVTVSS”, the “polyreactivity (PSR sort gate)” value is given as “low polyreactivity”.

On to “QVLLQESGGGLVQAGGSLRLSCAASGSIFLIYTMGWYRHAPVKEREFVAGITLGTTTYNADSVKGRFTISRDNVKNTVYLKMNILKPEDTEVYYCAVAVGHYTEFWYWGQGTQVTMSS”, for which the “polyreactivity (PSR sort gate)” value is recorded as “high polyreactivity”.

With “QVQLVESGGGLVQAGGSLRLSCAASGITVRLYAMGWYRQAPGKERELVATIDWSGDSTYYADSVKGRFTISRDNAKNTVYLQMHSLKPEDTAVYYCNAVYVPVGINLGEYDYWGQGTQVTVSS”, the “polyreactivity (PSR sort gate)” value is listed as “low polyreactivity”.

On to “QVQLVESGGGLVQAGGSLRLSCADSGSIFDFNTMGWYRQAPGKERELVAAISQRTGRTYYADSVKGRFTISRDNANNTVYLQMNSLKPEDTADYYCAVVWYDKGRQTRYNSWGQGTQVTVSS”, for which the “polyreactivity (PSR sort gate)” value was “high polyreactivity”. The entry for “QVQLVESGGGLVQAGGSLRLSCAASGRIFVRYTMGWYRQAPGKERELVAAITKRGGSTYYADSVKGRFTISRDNAKNTVYLQMNSLKPEDTAVYYCATDGLGYNRPQDEYWGQGTQVTVSS” is “high polyreactivity”; for “QVQLEDSGGGLVQAGGSLRLSCAASGFTFSYNAMGWYIQAPGKERELVAAISSRGTSTYYADSVKGRFTISRDNAKNTVYLQMNSLKPEDTAVYYCNTVPYFYLTFYPHYDYWGQGTQVTVSS” it is “high polyreactivity”; for “QVQLVESGGGLVQAGGSLRLSCAASGGIFRLYGMGWYRQAPGKERELVAAIRQSGGRTYYADSVKGRFTISRDNAKNTVYLQMNSLKPEDTAVYYCAADLLYRSSGSARLDYDYWGQGTQVTVSS” it is “low polyreactivity”.

For the sequence “QVQLVESGGGLVQAGGRLRLSCAASGRTFYYNAMGWYRQAPGKERELVAAISSSGGRTYYADSVKGRFTISRDNAKNTVYLQMNSLKPEDTAVYYCAALTNARGFDYWGQGTQVTVSS”, the “polyreactivity (PSR sort gate)” value is listed as “high polyreactivity”. Under “QVQLVESGGGLVQAGGSLRLSCAASGGTFGYNAMGWYRQAPGKERELVAAIRNCGSTYYADSVKGRFTISRDNAKNTVYLQMNSLKQEDTAVYYCAAKVYRKLNYWVQGTQVTVSS” stands “high polyreactivity”. Take “QVQLVESGGGLVQAGGSLRLSCAASGSTLYVYTMGWYRQAPGKERELVATINTSGSRTYYADSVKGRFTISRDNAKNTVYLQMNSLKPEDTAVYYCAAEYVGKGTPDDYDYWGQGTQVTVSS”: the “polyreactivity (PSR sort gate)” value was “high polyreactivity”. The entry for “QVQLVESGGGLVQAGGSLRLSCAASGITFQNYAMGWYRQAPGKERELVAAITRSGGRTYYADSVKGRFTISRDNAMNTVYLQMNSLKPEDTAVYYCAVYGIGRPYWYDYWGQGTQVTVSS” is “high polyreactivity”. Under “QVQLVESGGGLVQAGGSLRLSCAASGSTFVIYGMGWYRQAPGKERELVADITWIGGSTYYADSVKGRFTISRDNAKNTVYLQMNSLKPEDTAVYYCNADVRYGRDHWGQGTQVTVSS” stands “low polyreactivity”; under “QVQLVESGGGLVQAGGSLRLSCAASGRIFRLYAMGWYSQEPGKDRELVATITSGGTYYADSVKGRFTISRDNAKNTVYLQMISLSPEDTAVYYCTARRRLRYDFWGQGTQVTVSS”, “low polyreactivity”.

The values are drawn from the nanobody polyreactivity screen of Harvey et al. (2022).
